The text below walks through data of article PMC6065357.

The target of assay [1] is NGF in the sSorCS2-NGF crystal (degradation product of the proNGF construct) (UniProt P01139). Nature of the assay: crystal structure; sSorCS2 mixed with proNGF 1:1.1, 1 mM calcium chloride; proNGF degraded to NGF in the drop; 0.225 M MES/bis-tris pH 6.6; 3.9 Å.
Assay [2] addresses mouse SorCS2 mature extracellular segment (sSorCS2, residues 117-1072) (mouse) (UniProt Q9EPR5). Described as above.
Assay [3] has as its target pro-nerve growth factor (proNGF, residues 19-241, furin sites changed to AA) (UniProt P01139). Nature of the assay: SPR; IBIS MX96; NGF, proNGF and proBDNF amine-coupled to a P-COOH SensEye sensor; wt and mutant sSorCS2 flowed as analyte; 25 mM HEPES pH 7.4, 150 mM NaCl, 0.005 % Tween 20; 25 °C; equilibrium binding, one site saturation model (two site saturation model for proBDNF). Background: In SPR one partner is held on a chip, and binding of the other changes the refractive index at the surface.

The target of assay [4] is mouse mature nerve growth factor (NGF) (mouse) (UniProt P01139). The assay is described as above.
Chain of mouse mature nerve growth factor (NGF) (mouse) (P01139 122-241): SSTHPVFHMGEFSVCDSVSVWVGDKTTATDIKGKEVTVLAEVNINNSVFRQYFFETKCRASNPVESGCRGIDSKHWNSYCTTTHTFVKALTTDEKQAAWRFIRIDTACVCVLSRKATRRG

Chain of mouse SorCS2 mature extracellular segment (sSorCS2, residues 117-1072) (Q9EPR5 117-1072): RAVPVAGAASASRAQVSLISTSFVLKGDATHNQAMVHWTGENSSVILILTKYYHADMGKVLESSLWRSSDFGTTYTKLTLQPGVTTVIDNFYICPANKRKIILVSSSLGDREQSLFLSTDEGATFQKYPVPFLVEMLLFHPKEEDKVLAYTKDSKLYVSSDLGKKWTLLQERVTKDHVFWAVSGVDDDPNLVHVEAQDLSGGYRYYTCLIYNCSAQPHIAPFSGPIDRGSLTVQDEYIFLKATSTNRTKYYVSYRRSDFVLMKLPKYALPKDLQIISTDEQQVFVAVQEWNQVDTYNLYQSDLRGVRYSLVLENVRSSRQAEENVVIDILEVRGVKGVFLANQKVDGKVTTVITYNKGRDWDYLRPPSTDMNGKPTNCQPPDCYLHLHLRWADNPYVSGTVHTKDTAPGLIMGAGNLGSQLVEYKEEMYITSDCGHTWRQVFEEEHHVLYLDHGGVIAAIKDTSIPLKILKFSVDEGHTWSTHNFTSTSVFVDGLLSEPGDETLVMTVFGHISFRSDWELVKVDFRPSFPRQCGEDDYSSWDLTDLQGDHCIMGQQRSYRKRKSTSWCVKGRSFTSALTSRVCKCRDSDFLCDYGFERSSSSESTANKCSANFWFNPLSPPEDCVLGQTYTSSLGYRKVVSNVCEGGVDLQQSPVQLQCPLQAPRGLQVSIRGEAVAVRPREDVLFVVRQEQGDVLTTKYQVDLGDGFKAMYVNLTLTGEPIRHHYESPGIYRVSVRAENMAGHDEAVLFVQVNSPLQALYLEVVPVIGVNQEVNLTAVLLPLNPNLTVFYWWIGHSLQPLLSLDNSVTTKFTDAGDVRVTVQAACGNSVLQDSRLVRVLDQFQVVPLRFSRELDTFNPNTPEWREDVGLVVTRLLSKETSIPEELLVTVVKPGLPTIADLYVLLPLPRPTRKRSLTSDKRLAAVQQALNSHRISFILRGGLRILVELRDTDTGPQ
Chain of mouse SorCS2 mature extracellular segment (sSorCS2, residues 117-1072), Q9EPR5 117-1072 (receptor; other documents disagree on this pair) (Q9EPR5 117-1072): as above
Chain of mouse SorCS2 mature extracellular segment (sSorCS2, residues 117-1072) (mouse) (Q9EPR5 117-1072): as above

With “NGF in the sSorCS2-NGF crystal (degradation product of the proNGF construct) (from UniProt P01139 122-241) (ligand)”, the stoichiometry N in assay [1] was found to be 2. In addition, in assay [2], the stoichiometry N (NGF chains per sSorCS2 chain) was 2.
The substance “mouse SorCS2 mature extracellular segment (sSorCS2, residues 117-1072) (from UniProt Q9EPR5 117-1072) (receptor)” gave a Kd in assay [3] of 0.043 µM.
In the case of “mouse SorCS2 mature extracellular segment (sSorCS2, residues 117-1072), Q9EPR5 117-1072 (receptor; other documents disagree on this pair)”, the dissociation constant (Kd) in assay [4] turned out to be 0.236 µM.

Usually stoichiometry N stands for the number of molecules, sites or subunits per partner or assembly. In general, Kd refers to a measure of binding affinity in units of concentration.
